Experimental data published in patent publication US20160017022A1 (CORNELL UNIVERSITY, published 2016).

Molecular target: Alexa 594 labeled His-tagged protoxin (Clostridium perfringens epsilon protoxin) (Clostridium perfringens, UniProt Q02307 33-328)
Experiment: fluorescent toxin staining, MAL loss-of-function mouse

B1: mouse MAL (endogenous, in wild-type mouse tissues; absent in MAL KO mice) (receptor)
chain: MAPAAASGGSTLPSGFSVFTTFPDLLFVCEFVFGGLVWILIASSLVPLPLAQGWVMFVSVFCFVATTSLMILYIIGTHGGETSWITLDAAYHCVAALFYLSASVLEALATISMFDGFTYKHYHENIAAVVFAYVVTLIYVVHAVFSLIRWKSS
notes: whole, on cells
  binding result: binds
